Results as given in patent US20090149389A1 (PURDUE RESEARCH FOUNDATION, published 2009).

Assays:
Experiment in all cases: cell-based or functional assay
JAK3 (h) = JAK3 (h) (human (h), UniProt P52333 781-1124, limits assumed)
SAPK2 a (h) = SAPK2 a (h) (human (h), UniProt Q16539 1-360)
CHK1 (h) = biological target: T1, CHK1 (h) (human (h), UniProt O14757 1-476)
T1 sequence (looked up): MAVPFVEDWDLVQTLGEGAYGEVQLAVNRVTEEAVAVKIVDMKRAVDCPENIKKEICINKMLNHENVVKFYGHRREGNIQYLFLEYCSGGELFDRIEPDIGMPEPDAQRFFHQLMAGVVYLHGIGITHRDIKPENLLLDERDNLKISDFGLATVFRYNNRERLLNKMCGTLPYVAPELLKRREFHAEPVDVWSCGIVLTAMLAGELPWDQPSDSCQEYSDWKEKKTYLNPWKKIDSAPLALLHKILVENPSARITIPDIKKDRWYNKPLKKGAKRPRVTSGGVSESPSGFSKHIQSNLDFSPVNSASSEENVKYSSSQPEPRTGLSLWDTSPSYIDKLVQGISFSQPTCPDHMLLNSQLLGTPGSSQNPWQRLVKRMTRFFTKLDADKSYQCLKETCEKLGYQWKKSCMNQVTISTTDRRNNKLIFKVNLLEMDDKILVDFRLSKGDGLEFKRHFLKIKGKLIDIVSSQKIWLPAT

EGFR (h) = EGFR (h) (human (h), UniProt P00533 696-1210, limits assumed)
MAPKI (h) = MAPKI (h) (human (h), UniProt P28482 1-360, limits assumed)
MAPKAP-K3 (h) = MAPKAP-K3 (h) (human (h), UniProt Q16644 1-382, limits assumed)
Sequence of MAPKAP-K3 (h) (Q16644 whole entry): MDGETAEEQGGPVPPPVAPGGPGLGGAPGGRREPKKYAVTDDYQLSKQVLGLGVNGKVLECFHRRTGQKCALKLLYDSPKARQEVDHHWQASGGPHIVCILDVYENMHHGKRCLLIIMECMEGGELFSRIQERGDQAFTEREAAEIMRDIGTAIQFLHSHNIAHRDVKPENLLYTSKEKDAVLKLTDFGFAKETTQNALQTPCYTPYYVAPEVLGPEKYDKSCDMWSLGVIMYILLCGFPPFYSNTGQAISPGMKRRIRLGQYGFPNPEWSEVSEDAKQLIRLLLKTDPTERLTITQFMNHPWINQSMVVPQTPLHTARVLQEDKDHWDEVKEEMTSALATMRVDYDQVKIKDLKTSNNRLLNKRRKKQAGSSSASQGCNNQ

Sequence of MAPKI (h) (P28482 whole entry): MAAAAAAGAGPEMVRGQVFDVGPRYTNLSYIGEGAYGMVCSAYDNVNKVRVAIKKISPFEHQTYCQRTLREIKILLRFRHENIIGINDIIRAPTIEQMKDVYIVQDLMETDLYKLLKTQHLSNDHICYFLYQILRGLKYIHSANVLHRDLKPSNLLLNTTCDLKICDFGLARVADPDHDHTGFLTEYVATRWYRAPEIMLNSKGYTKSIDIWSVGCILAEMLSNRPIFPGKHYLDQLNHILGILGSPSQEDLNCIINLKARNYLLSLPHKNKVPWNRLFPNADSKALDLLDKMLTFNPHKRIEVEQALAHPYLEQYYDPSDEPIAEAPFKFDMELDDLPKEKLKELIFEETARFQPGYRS
Sequence of JAK3 (h) (P52333 781-1124 limits assumed): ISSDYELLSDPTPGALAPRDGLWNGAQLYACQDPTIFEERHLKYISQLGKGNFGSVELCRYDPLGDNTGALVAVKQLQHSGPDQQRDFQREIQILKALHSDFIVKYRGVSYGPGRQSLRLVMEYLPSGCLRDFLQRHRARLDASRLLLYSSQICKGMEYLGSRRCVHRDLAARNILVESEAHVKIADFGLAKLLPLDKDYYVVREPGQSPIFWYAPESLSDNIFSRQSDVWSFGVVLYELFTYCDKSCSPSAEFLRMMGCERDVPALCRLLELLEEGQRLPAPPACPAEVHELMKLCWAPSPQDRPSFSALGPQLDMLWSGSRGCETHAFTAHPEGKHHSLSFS
Sequence of SAPK2 a (h) (Q16539 whole entry): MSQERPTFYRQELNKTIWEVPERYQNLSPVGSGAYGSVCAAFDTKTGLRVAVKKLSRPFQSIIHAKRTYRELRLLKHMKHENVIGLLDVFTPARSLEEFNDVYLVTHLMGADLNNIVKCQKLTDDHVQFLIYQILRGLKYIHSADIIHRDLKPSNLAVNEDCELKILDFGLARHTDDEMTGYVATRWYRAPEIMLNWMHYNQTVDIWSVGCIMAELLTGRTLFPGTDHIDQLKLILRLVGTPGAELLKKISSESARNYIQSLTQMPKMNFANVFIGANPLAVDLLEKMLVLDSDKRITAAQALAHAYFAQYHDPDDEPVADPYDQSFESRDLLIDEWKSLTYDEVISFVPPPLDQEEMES

KAFAKLAARLYRKALARQLGVAA
Profile-1 @ = 100 µm (kinase profiler assay) (JAK3 (h)): 91
Profile-1 @ = 100 µm (kinase profiler assay) (SAPK2 a (h)): 59
Profile-1 @ = 100 µm (kinase profiler assay) (CHK1 (h)): 68
Profile-1 @ = 100 µm (kinase profiler assay) (EGFR (h)): 16
Profile-1 @ = 100 µm (kinase profiler assay) (MAPKI (h)): 108
Profile-1 @ = 100 µm (kinase profiler assay) (MAPKAP-K3 (h)): 17
